Target: C97ZA_SOSIP_L556P_T651F_M535N (HIV-1 clade C strain C97ZA)
Test: AlphaLISA on crude cell culture supernatant

B1: mAb PGT145 (antibody, V domains shown)
VH: QVQLVQSGAEVKKPGSSVKVSCKASGNSFSNHDVHWVRQATGQGLEWMGWMSHEGDKTGLAQKFQGRVTITRDSGASTVYMELRGLTADDTAIYYCLTGSKHRLRDYFLYNEYGPNYEEWGDYLATLDVWGHGTAVTVSS
VL: EVVITQSPLFLPVTPGEAASLSCKCSHSLQHSTGANYLAWYLQRPGQTPRLLIHLATHRASGVPDRFSGSGSGTDFTLKISRVESDDVGTYYCMQGLHSPWTFGQGTKVEIKR
- trimer yield (PGT145 AlphaLISA signal), fold over the C97ZA_SOSIP backbone: 5 fold
